Kd and stoichiometry N (AcrIIA14ct per SauCas9) data for four substances are collected here from paper PMC8216286.

In data set [1] the target is Staphylococcus aureus Cas9 (SauCas9), wild type (Staphylococcus aureus) (UniProt J7RUA5). Briefly: BLI; biotinylated SauCas9 protein (or SauCas9-sgRNA complex) loaded on streptavidin biosensors for 60 s; 20°C; 20 mM HEPES pH 7.55, 100 mM KCl, 10 mM MgCl2, 1 mM DTT, 5% glycerol; four or five concentrations of sample. On the technique in general: In BLI a coated tip is dipped into the sample, and binding shifts an interference pattern.

For data set [2], the target named is SauCas9 (N580A/C946A) (Staphylococcus aureus) (UniProt J7RUA5). Kind of data set: crystal structure; SauCas9 (N580A/C946A)-sgRNA-AcrIIA14ct-dsDNA quaternary complex, mixed at 1:1.2:5:2, purified by SEC; hanging drop, 20°C; 2.22 Å.
The test system of data set [3] is SauCas9 (Staphylococcus aureus). Kind of data set: BLI. As to conditions: 10 mM Mg2+, BLI: 20 mM HEPES pH 7.55, 100 mM KCl, 10 mM MgCl2, 1 mM DTT, 5% (w/v) glycerol, 20 C, complex for crystals: 10 mM Tris-HCl pH 8.0, 300 mM NaCl, 3 mM DTT.

As a reminder, the Kd is the constant that tells how readily two partners part at equilibrium. A lower Kd goes with a tighter complex. Substance “AcrIIA14ct mutant H56K (domain or fragment)” came in with a Kd in data set [1] of 58 nM.

As to “AcrIIA14ct (C-terminal domain of AcrIIA14, residues 60-159) (domain or fragment)”, the stoichiometry N (AcrIIA14ct per SauCas9) in data set [2] is 1. In data set [1], this substance displayed a Kd of 0.00558 nM.

The substance SauCas9 sgRNA (BLI) returned a Kd in data set [3] (biotinylated SauCas9 on streptavidin sensor) of 0.473 nM. This lies in the sub-nanomolar range.

In turn, SauCas9 sgRNA / target DNA (BLI) came in with a Kd in data set [3] (target DNA as analyte, SauCas9-sgRNA complex presumably immobilized) of 0.535 nM.
